This passage reports Kd results from PMC4299599, “Quantification of cytosolic interactions identifies Ede1 oligomers as key organizers of endocytosis” (Molecular Systems Biology, 2014).

What all share (settings): partners not purified
Experiment [1] has as its target T1, Sla1 (S. cerevisiae, UniProt P32790 1-1244).
T1 construct: Sla1, S. cerevisiae; also called Sla1-3myeGFP; Sla1-3mCherry; source: chromosomally tagged at the endogenous locus, in the cytoplasm of living S. cerevisiae cells
T1 sequence (looked up): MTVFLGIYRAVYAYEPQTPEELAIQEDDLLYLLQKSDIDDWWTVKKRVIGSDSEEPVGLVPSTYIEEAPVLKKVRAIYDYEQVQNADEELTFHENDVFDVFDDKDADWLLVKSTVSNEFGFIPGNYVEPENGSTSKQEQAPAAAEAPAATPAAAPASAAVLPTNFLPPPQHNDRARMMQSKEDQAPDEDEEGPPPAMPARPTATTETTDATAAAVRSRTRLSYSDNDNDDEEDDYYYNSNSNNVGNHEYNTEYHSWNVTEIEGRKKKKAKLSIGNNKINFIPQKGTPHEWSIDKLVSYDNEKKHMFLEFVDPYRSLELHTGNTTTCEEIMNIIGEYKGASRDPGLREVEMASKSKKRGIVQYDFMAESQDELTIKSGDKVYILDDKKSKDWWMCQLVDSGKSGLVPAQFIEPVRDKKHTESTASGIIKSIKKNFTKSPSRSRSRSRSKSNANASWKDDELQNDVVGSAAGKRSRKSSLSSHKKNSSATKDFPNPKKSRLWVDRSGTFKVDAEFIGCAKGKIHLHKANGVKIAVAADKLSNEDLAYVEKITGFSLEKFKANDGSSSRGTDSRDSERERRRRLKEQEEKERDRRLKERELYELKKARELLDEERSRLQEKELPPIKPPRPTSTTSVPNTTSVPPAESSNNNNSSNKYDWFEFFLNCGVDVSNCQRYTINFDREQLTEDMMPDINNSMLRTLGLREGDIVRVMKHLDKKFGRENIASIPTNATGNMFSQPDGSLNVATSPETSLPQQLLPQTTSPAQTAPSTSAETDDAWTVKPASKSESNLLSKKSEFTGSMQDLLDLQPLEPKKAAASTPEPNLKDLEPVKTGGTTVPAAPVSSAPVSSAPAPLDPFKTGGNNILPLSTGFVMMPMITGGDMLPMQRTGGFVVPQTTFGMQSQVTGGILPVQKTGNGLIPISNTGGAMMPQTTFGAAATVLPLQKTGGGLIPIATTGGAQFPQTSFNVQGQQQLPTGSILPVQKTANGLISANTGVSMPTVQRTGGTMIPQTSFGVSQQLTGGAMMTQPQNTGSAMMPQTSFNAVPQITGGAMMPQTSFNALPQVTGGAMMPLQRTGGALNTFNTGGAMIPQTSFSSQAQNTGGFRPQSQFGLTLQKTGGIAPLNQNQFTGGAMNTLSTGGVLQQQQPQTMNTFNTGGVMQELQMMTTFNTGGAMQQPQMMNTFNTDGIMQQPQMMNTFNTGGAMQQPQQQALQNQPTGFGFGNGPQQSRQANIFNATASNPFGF
The experiment is described as follows: fluorescence cross-correlation spectroscopy (FCCS); in the cytoplasm of living yeast cells; first-named protein green (3myeGFP or 1myeGFP; eGFP for Don1), second red (3mCherry); self-interaction in diploid strains with one allele of each colour; apparent or effective KD (Kdeff) from single-cell measurements; only Kdeff values < 1000 nM are shown; values for self-interactions are upper limits.

The target in experiment [2] is T2, Bbc1 (S. cerevisiae, UniProt P47068 1-1157).
T2 construct: Bbc1, S. cerevisiae; also called Bbc1-3myeGFP; Bbc1-3mCherry; source: chromosomally tagged at the endogenous locus, in the cytoplasm of living S. cerevisiae cells
T2 sequence (looked up): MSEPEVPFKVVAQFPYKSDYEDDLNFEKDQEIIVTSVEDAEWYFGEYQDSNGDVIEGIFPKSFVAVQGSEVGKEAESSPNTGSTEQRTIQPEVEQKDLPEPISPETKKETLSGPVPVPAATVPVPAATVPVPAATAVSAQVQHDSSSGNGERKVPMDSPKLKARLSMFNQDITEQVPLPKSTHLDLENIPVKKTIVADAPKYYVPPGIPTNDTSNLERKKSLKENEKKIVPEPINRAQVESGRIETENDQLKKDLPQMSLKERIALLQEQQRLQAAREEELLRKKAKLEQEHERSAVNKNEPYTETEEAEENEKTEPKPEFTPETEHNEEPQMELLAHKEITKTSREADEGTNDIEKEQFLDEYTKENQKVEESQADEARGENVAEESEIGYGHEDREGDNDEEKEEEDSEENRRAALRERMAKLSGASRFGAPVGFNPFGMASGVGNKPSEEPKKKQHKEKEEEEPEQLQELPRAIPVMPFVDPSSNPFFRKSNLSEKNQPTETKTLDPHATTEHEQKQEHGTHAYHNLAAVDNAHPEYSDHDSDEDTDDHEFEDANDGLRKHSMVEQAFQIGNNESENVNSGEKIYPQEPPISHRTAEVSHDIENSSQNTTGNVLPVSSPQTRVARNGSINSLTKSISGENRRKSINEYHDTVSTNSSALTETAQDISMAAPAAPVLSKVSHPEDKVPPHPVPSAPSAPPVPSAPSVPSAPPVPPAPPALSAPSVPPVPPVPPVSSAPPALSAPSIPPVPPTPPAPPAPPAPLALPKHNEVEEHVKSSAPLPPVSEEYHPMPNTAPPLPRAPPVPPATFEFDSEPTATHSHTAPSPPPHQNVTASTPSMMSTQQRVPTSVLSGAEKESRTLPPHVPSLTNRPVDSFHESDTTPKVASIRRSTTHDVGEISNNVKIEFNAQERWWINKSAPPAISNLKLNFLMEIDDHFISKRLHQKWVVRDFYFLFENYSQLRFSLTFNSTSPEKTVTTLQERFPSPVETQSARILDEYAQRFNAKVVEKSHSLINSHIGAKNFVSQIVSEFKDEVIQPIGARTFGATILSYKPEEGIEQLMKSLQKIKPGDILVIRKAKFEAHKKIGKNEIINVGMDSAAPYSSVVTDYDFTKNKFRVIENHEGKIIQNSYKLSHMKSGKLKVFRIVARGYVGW
Described as above.

Experiment [3] deals with T3, Ste11-3mCherry (S. cerevisiae, UniProt P23561 1-717).
T3 construct: Ste11, S. cerevisiae; negative control of FCCS; source: S. cerevisiae strain Don1-eGFP, Ste11-3mCherry, in living cells
T3 sequence (looked up): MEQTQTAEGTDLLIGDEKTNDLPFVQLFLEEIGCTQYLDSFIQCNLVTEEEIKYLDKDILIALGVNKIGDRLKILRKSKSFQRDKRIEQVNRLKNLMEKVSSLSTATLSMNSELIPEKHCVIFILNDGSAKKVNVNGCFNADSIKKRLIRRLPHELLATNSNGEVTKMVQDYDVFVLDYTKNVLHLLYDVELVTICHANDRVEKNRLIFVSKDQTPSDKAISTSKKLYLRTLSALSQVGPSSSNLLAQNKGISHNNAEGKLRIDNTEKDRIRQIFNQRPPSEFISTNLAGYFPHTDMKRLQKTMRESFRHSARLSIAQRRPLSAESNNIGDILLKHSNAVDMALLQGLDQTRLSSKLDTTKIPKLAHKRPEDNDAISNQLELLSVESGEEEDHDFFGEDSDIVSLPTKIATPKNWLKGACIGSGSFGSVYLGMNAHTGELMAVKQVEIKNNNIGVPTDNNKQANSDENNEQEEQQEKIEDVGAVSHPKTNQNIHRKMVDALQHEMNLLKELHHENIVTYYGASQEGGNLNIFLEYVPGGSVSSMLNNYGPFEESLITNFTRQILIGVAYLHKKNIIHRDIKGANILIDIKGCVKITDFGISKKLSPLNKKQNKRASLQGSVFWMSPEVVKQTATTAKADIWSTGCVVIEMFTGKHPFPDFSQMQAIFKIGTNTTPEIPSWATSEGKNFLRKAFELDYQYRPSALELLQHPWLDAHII
The experiment is described as follows: fluorescence cross-correlation spectroscopy (FCCS); living yeast cells, observation volume in the cytoplasm; one protein tagged with (3)myeGFP/eGFP and the other with 3mCherry in the same strain; apparent (effective) KD; interactions up to ~1 μM detectable.

The target in experiment [4] is T4, Rvs167 (S. cerevisiae, UniProt P39743 1-482).
T4 construct: Rvs167, amphiphysin-like protein, S. cerevisiae; also called Rvs167-1myeGFP; source: chromosomally tagged at the endogenous locus, in the cytoplasm of living S. cerevisiae cells; not shown: 1myeGFP, C-terminal, kept
The experiment is described as follows: fluorescence cross-correlation spectroscopy (FCCS); in the cytoplasm of living yeast cells; first-named protein green (3myeGFP or 1myeGFP; eGFP for Don1), second red (3mCherry); self-interaction in diploid strains with one allele of each colour; apparent or effective KD (Kdeff) from single-cell measurements; only Kdeff values < 1000 nM are shown; values for self-interactions are upper limits.

T4 sequence (P39743 whole entry): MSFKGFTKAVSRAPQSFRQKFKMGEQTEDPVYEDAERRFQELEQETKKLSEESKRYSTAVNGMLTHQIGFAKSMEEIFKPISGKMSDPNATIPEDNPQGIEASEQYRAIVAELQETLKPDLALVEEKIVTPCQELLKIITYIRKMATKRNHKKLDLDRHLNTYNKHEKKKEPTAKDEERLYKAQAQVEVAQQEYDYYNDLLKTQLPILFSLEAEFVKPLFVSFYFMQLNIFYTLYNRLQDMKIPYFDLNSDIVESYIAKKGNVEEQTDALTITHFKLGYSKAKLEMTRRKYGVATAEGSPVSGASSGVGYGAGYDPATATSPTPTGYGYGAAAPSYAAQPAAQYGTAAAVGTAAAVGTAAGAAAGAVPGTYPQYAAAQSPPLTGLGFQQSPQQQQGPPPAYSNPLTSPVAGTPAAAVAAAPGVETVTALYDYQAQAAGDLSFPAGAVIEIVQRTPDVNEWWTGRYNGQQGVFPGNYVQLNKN

B1: Bzz1 (natural protein, S. cerevisiae, UniProt P38822 1-633, looked up)
chain: MSADLSIGNEIKDSFKETHKWVQNNLKWLKDIEQFYRERAKLEKDYSERLSRLSAEYFNKKSSTSVPISVGDTPTTTPGSIEAAGVVAWNEILSQTDMISKDHDQLSTDFENHVANQLSGLFTKLDMTLSKINGFNNDMVNKKDNIYHELEKAKKDYDEACSTMEMARNRYTKASNDRNKKKLDEKEMEMNKCKNEYLIKINQANRTKDKYYFQDVPEVLDLLQDVNEAKTLFLNDLWLKAASVENDLGANVSKRLQAANSVVKQNKPSLNTAIFIKHNLKNWKEPQDFVYKPSPVWHDDEKFAVPSSLEVEDLRIKLAKAENDYNSLQDKTQNELSKLSTLNKIKHEMKTNEDNINATKFYDTLKEYLNVVSPFTSHETLKLQAEVQIESIQNNVPEEYDLSTDNIDLSKTKKKSGIFSKFKHNILNVDSKPSSGGSTGNGNGGPLHITSLFNTSRRTRLGSAPNNAGEDSDNNSIRTTSTNNTKKTTQNSSDDGKNKVLYAYVQKDDDEITITPGDKISLVARDTGSGWTKINNDTTGETGLVPTTYIRISSAATVKANDRGPAPEVPPPRRSTLPVRTMEAIYAYEAQGDDEISIDPGDIITVIRGDDGSGWTYGECDGLKGLFPTSYCK
notes: Bzz1, S. cerevisiae; also called Bzz1-3myeGFP; Bzz1-3mCherry; source: chromosomally tagged at the endogenous locus, in the cytoplasm of living S. cerevisiae cells
As to B1, the Kd in experiment [1] turned out to be 976 nM; in experiment [2], 994 nM.

B2: Don1-eGFP (natural protein, S. cerevisiae, UniProt Q05610 1-365, looked up)
chain: MGKKNRKGKENNAAKTSFLKVENIKNTNSGLELPSQDYTNVEEKESSPKTDFPLITKEHVNTKTDSNILDYPTIGDLVSSVEKLCVLKELKIAFPEVDDTLIKAILIASQGVLEPAFNSLLYYSSPEENTDFALPMKPISVEDYSKINVSEILQREIFDDIEDEFSGQGINGSMVISKIESELSSLAEHIGNISTPGSNREVAESTRNVAVAEGHNTILSNEDSILKGKEKGKEEEKEKGEEKGVNSLKGAAVKVVAKSLKNNRIPVTVKRNEPSNNLFDVLNCDESEEEEEQDVETNTSNQERKNQGGNTEVPEAQRDSADRLPAKDDGGYKSAFGTDSCGLFAADAKDEKKQVHPSRQELSFT
notes: Don1, S. cerevisiae; negative control of FCCS; source: S. cerevisiae strain Don1-eGFP, Ste11-3mCherry, in living cells
Take B2: the Kd in experiment [3] is greater than 1000 nM.

B3: Rvs161 (natural protein, S. cerevisiae, UniProt P25343 1-265, looked up)
chain: MSWEGFKKAINRAGHSVIIKNVDKTIDKEYDMEERRYKVLQRAGEALQKEAKGFLDSLRAVTASQTTIAEVISNLYDDSKYVAGGGYNVGNYYLQCVQDFDSETVKQLDGPLRETVLDPITKFSTYFKEIEEAIKKRDHKKQDFDAAKAKVRRLVDKPAKDASKLPRAEKELSLAKDIFENLNNQLKTELPQLVSLRVPYFDPSFEALIKIQLRFCTDGYTRLAQIQQYLDQQSRDDYANGLLDTKIEELLGQMTSLDICALGIK
notes: Rvs161, amphiphysin-like protein, S. cerevisiae; also called Rvs161-1myeGFP; Rvs161-3mCherry; source: chromosomally tagged at the endogenous locus, in the cytoplasm of living S. cerevisiae cells
Regarding B3, the Kd in experiment [4] was 6 nM.
